Measurements published in the nanobody polyreactivity screen of Harvey et al. (2022).

Experiment: yeast display, Sf9 membrane polyspecificity reagent, FACS + sequencing; frameworks hold sequencing errors
How it was run: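 Synthetic nanobody libraries on Saccharomyces cerevisiae BJ5465 were galactose-induced for 36–48 hours, stained 1 hour at 4 °C with 10% biotinylated, detergent-solubilized Sf9 membrane reagent and enriched on streptavidin microbeads. FACS then separated cells into low and high (top ~1%) gates by anti-HA (expression) and streptavidin (reagent binding) fluorescence. Genes were colony-PCR amplified, MiSeq 2 × 250 sequenced and CDR-length filtered. A clone's polyreactivity label is that of its gate of origin.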

Sequence	polyreactivity (PSR sort gate)
QVQLVESGGGLVQAGGSLRLSCAASGRIFGFNMGWYRQAPGKERELVAAINSGGGTYYADSVKGLFTISRDNAKNTVYLQMNSLKPEYTAVYYCNARFRFRLGQYRYDYWGQGTQVTVSS	high polyreactivity
QVQLVESGGGLVQAGGSLRLSCAASGRIFGGNADMGWDRQAPGKERELVAVIDWSGGSTYYADSVKGRFTISRDNAKNTVYFQMHSLKPEDTAVYYCNADAPRSSGDYGQGDYWGQGTQVTVSS	high polyreactivity
QVQLVESGGGLVQAGGSLRLSCAASGRIFGGNAMGWYRPAPGKERELVAAITTRGGSTYADSVKGRFTISRDNAKNTVYLQMNSLKPEDTAVYYCAVERSYHGGPRYLVRTYGYWGQGTQVTVSS	low polyreactivity
QVQLVESGGGLVQAGGSLRLSCAASGRIFGGNVRGWYRQAPGKERELVAGISFSGGSTYYADSVKGRFTISRDNAKNTVYLQMNSLKPEDTAHYYCAASTYQPGALPFDYWGQGTQVTVSS	low polyreactivity
QVQLVESGGGLVQAGGSLRLSCAASGRIFGGYAMGWYRQAPGKERELVAAIRDSGRTYYADSVKGRFTISRDNAKNTVYLQMNSLKPEDTAVYYCAADAHSSYSPFRWYDYWGQGTQVTVSS	low polyreactivity
QVQLVESGGGLVQAGGSLRLSCAASGRIFGGYAMGWYRQAPGKERELVAAISRSGGSTYYADSVKGRFTISRDNAKNTVYLQMNSLKPEDTAVYYCNVASKRALSRYKGYYWGQGTQVTVSS	high polyreactivity
QVQLVESGGGLVQAGGSLRLSCAASGRIFGGYAMGWYRQAPGKERELVAGIRSGGSTYYADSVKGRFTISRDIAKNTVYLQINSLKPEDTAVYYCNARLYFWNRYTYSQNNYWGQGTQVTVSS	high polyreactivity
QVQLVESGGGLVQAGGSLRLSCAASGRIFGGYGRGWYRQAPGKERELVAAITSGDGSTYAESVKGRFTISRDNAKNTVYLQMNSLKPEDTAVYYCADESFGYSIDITDHEYWGQGTQVTVSS	high polyreactivity
QVQLVESGGGLVQAGGSLRLSCAASGRIFGGYVMGWYRQAPGKEREFVAAISGRGTSTSYADSVKGRFTISRDNAKNTVYLQMNSLKPEDTAVYYCAARRDGWTFWKYDYWGQGTQVTVSS	high polyreactivity
QVQLVESGGGLVQAGGSLRLSCAASGRIFGHYAMGWYRQAPGKERELVAAITIGGSTYYADSVKGRFTISRDNAKNTVYLQMNSLKPEDTAVYYCAKVGSNYRGRLGYWGQGTQVNVSS	low polyreactivity
QVQLVESGGGLVQAGGSLRLSCAASGRIFGHYAMGWYRQAPGKERELVAAITRSGDRTYYADSVKGRFTISRDNAKNTVYLQMNSLKPEDTEVYYCAADVSAVQGYYYWGQGTQVTVSS	low polyreactivity
QVQLVESGGGLVQAGGSLRLSCAASGRIFGHYARGWYRQAPGKERELVAAITSGGRTYYADSVKGRFTISRDNAKNTVYLQMNSLKPEDTAVYYFNVRVFVGLQPFGYWGQGTQVTVSS	high polyreactivity
QVQLVESGGGLVQAGGSLRLSCAASGRIFGHYVMGWYRQAPGTERELVAAISYSGGSTYYAHSVKGRFTISRDNAKNTVYLQMNSLKPEDTAVYYCAAYVYRYHRVAYEYWGQGTQVTVSS	high polyreactivity
QVQLVESGGGLVQAGGSLRLSCAASGRIFGINAMGWYRQAPGKERALVAAISRSGSRTYYADSVKGRFTISRDNAKNTVYLQMNSLKPEDTAVYYCAAQKRVYDSVRSTDRYDYWGQGTQVTVSS	high polyreactivity
QVQLVESGGGLVQAGGSLRLSCAASGRIFGIYAMGWYRQAPGKERELVAAINSGDSTYADSVKGRFTISRDNAKNTVYLQMNSLKPEDTAVYYCAAEESTSSWSINDYWGQGTQVTVSS	low polyreactivity
QVQLVESGGGLVQAGGSLRLSCAASGRIFGIYAMGWYRQAPGKERELVAVITRGDRTYADSVKGRFTISRDNAKNTVYLQMNSLKTEDTAVYYCNADTGYRFDYWGQGTQVTVSS	high polyreactivity
QVQLVESGGGLVQAGGSLRLSCAASGRIFGKYALGWYRQAPGKERELVAAISGRGGRTYYADSVKGRFTISRDNAKNTVYLQMNSLKPEDTAVYYFANDPRGSRYDYWGQGTQVTVSS	high polyreactivity
QVQLVESGGGLVQAGGSLRLSCAASGRIFGKYTMGWYRQAPGKERELVAAISWGGGSTYYADSVKGRFTISRDNAKNTVYLQMNSLKPEDTAVYYCAADYYYYHTQEYDYWGQGTQVTVSS	high polyreactivity
QVQLVESGGGLVQAGGSLRLSCAASGRIFGKYVMGWYRQAPGKERELVAGISWSAGSTYYADSVKGRYTISRDNAKYTVYLQMNSLKPEDTAVYYCAAGLEGGYDYWGQGTQVTVSS	low polyreactivity
QVQLVESGGGLVQAGGSLRLSCAASGRIFGLNAMGWYRQAPGKEREFVAAITWRGGRTYYADSVKGRFTISRDNAKNTVYLQMNSLKPEDTAVYYCAADGGSTLDYYWGQGTQVTVSS	low polyreactivity
QVQLVESGGGLVQAGGSLRLSCAASGRIFGLYAMGWYRQAPGKEREFVAAINWDGGSTFYADSVKGRFTISRDNAKNTVYLQMNSLKPEDTAVYYCAADVYSYVSYSTYVSVFTYDYWGQGTQVTVSS	low polyreactivity
QVQLVESGGGLVQAGGSLRLSCAASGRIFGLYAMGWYRQAPGKERELVAAIRGRGGRTSYADSVKGRFTISRDNAKNTVYLQMNSLKPEDTAVYYCNAELYPWPGVVRYNYWGQGTQVTVSS	high polyreactivity

Sequence	polyreactivity (PSR sort gate)
QVQLVESGGGLVQAGGSLRLSCAASGRIFGLYAMGWYRQAPGKERELVAAYADSVKGRFTISRDYAKNTVYLQMNSLKPEDTAVYYCAKGPLYAGYSIDLRDFNYWGQGTQVTVSS	low polyreactivity
QVQLVESGGGLVQAGGSLRLSCAASGRIFGLYTIGWYRQAPGKDREFVAGITYSAGRTYYADSVKGRFPISRDNAKNTVYLQMNSLKPEDTAVYYCAARIYSKFTSYGILDSWGQGTQVTVSS	high polyreactivity
QVQLVESGGGLVQAGGSLRLSCAASGRIFGNYAKGWYRQAPGKERELVAAISGGGSTYYADSVKGRFTISRDNAKNTVYLQMNSLKPEDTAVYYCAARFLSSVFGRKGGYWGQGTQVTVSS	low polyreactivity
QVQLVESGGGLVQAGGSLRLSCAASGRIFGNYAMGWYRQAPGKARELVAAITSGARTYYADSVKGRFTISRDNAKNTVYLQMNSLKPEDTAVYYCAAYHKSYSYRYDYWGQGTQVTVSS	high polyreactivity
QVQLVESGGGLVQAGGSLRLSCAASGRIFGPNAMGWYRQAPGKERELVAAISTSGGRTYYADSVKGRFTISRDNAKNTVYLQMNSLKPEDTAVYYCAADRSRWGQGTQVTVSS	high polyreactivity
QVQLVESGGGLVQAGGSLRLSCAASGRIFGPYAMGWYRQAPGKERELGASISGGGSTNYADSVKGRFTISRDNAKNTVYLPMNSVKPEDTAVYYCAADVYYQYWGWWPYDYWGQGTQVTVSS	low polyreactivity
QVQLVESGGGLVQAGGSLRLSCAASGRIFGPYAMGWYRQAPGKERELVASISYSGGSTYYADSVKGRFTISRDNAKNTVYLQMNSLKPEDTAVYYCAKGGYWRGYNYYYWGQGTQVTVSS	low polyreactivity
QVQLVESGGGLVQAGGSLRLSCAASGRIFGPYTMGWYRQAPGKERELVAAINGRGGSTYYADSVKGRFTISRDNAKNTVYLQMNSLKPEDTAVYYFNASPTWVYSRVYGYNYWGQGTQVTVSS	low polyreactivity
QVQLVESGGGLVQAGGSLRLSCAASGRIFGPYTMGWYRQAPGKERELVAGITKSGSSTYYADSVKGRFTISRDNAKNTVYLQMNSLKPEDTAVYYCAADVYQVRGYYWGQGTQVTLSS	high polyreactivity
QVQLVESGGGLVQAGGSLRLSCAASGRIFGPYVMGWYRQAPGKERELVAAINRRGGSTYYADSVKGRFTISRDNAKNTVYLQMNSLKPEDTAVYYCAAKKATVVYRMEYWGQGTQVTVSS	high polyreactivity
QVQLVESGGGLVQAGGSLRLSCAASGRIFGQNAMGWYRQAPGKERELVADITGSGGRTYYADSVKGRFTISRDNAKNTVYFQMNSLKPEDTAVYYCAVRVTSYYRTMVYWGQVTQVTVSS	low polyreactivity
QVQLVESGGGLVQAGGSLRLSCAASGRIFGQYAMGWYRQAPGKDRELVAAISWRGGTTYYADSVKGRFTISRDNAKNTVYLQMNSLKPEDTAVYYCNADVWVYPYDYWGQGTQVTVSS	low polyreactivity
QVQLVESGGGLVQAGGSLRLSCAASGRIFGQYAMGWYRQAPGKERELVAAISWRGGTTYYADSVKGRFTISRDNAKNTVYLKMNSLKPVDTAVYYCNADVWVYPYDYWGQGTQVTVSS	low polyreactivity
QVQLVESGGGLVQAGGSLRLSCAASGRIFGQYAMGWYRQAPGKERELVASIRSGGSTNYADSVKGRFTISRDNAKNTVYLQMNSLKPADSAVYYCNRRSGRTSRFHDYGYWGQGTQVTVSS	high polyreactivity
QVQLVESGGGLVQAGGSLRLSCAASGRIFGRDMGWYRQAPGKERELVATITWRGGSTYYADSVKGRFTISRDNAKNTVYLQMNSLKPEDTAVYYCTAALSHDYWHYRLGYWGQGTQVTVSS	low polyreactivity
QVQLVESGGGLVQAGGSLRLSCAASGRIFGRNAMGWYRPAPGKERELVADISYRGGRPYYADSVKGRFTISRDNAKNTVYLQMNSLKPEDTAVYYCNAGVYRSGGRKYDYWGQGTQVTVSS	high polyreactivity
QVQLVESGGGLVQAGGSLRLSCAASGRIFGRNAMGWYRQAPGKEREFVAGITTNGGRTYYADSVKGRFTISRDYAKNSVFLQMNSLIPEDTAVYYWAAVRYYFLKYYYWGQGTQVTVSS	high polyreactivity
QVQLVESGGGLVQAGGSLRLSCAASGRIFGRNAMGWYRQAPGKEREFVARIRTSGGSTYYADSVKGRFTISRDNAKNTVYLQMISLTPEDTAVYYCAAAVYTSARGYDYWGQGTQVTVSS	high polyreactivity
QVQLVESGGGLVQAGGSLRLSCAASGRIFGRNAMGWYRQAPGKERELVAGISSGGTTDYADSVKGRFTISRDNAKNTVYLQMNSLKPEDTAVYYCNDGYAYDDQTYYLGESDYWGQGTQVTVSS	low polyreactivity
QVQLVESGGGLVQAGGSLRLSCAASGRIFGRNARGWYRQAPGKEREFVAAISGNGGSTYYADSVKGRFTISRDNAKNTVYLQMNSLKPEDTAVYYCATKYFSRMDYWGQGTQVTVSS	high polyreactivity
QVQLVESGGGLVQAGGSLRLSCAASGRIFGRYAMGWSRQAPGKERELVAAIRWSVGSTYYADSVKGRFTISRDNAKNTVYLQMNSLKPEDTAVYYCAADIRQSIMDYWGQGTQVTVSS	high polyreactivity
